From US20080182978A1, “ANTI-NGF ANTIBODIES AND METHODS USING SAME” (RINAT NEUROSCIENCE CORP, priority 2002, published 2008)
Changes are numbered by the printed parent chain. Names and notes keep the numbering of the source.

B1: 8L2-6D5: CDR-grafted antibody with V71K heavy chain framework substitution; template for affinity maturation (antibody, V domains shown)
VH: QVQLQESGPGLVKPSETLSLTCTVSGFSLIGYDINWIRQPPGKGLEWIGMIWGDGTTDYNSALKSRVTISKDTSKNQFSLKLSSVTAADTAVYYCARGGYYYGTSYYFDYWGQGTLVTVS
VL: DIQMTQSPSSLSASVGDRVTITCRASQDISNHLNWYQQKPGKAPKLLIYYISRFHSGVPSRFSGSGSGTDFTFTISSLQPEDIATYYCQQSKTLPYTFGQGTKLEIKRT
B2: L97: light chain library clone, CDRL1 SEQ ID NO:22, CDRL2 SEQ ID NO:23 (antibody, V domains shown)
VH: B1 VH
VL: B1 VL with D28S, H32Q, I51V
B3: H109: heavy chain library clone, CDRH1 SEQ ID NO:28, CDRH2 SEQ ID NO:29 (antibody, V domains shown)
VH: B1 VH with I34S, M50I
VL: B1 VL
B4: L129: light chain library clone, CDRL1 SEQ ID NO:18, CDRL2 SEQ ID NO:19 (antibody, V domains shown)
VH: B1 VH
VL: B1 VL with D28S, H32N, I51T
B5: L208: light chain library clone, CDRL1 SEQ ID NO:20, CDRL2 SEQ ID NO:21 (antibody, V domains shown)
VH: B1 VH
VL: B1 VL with D28Y, I51T
B6: H225: heavy chain library clone, CDRH1 SEQ ID NO:34, CDRH2 SEQ ID NO:35 (antibody, V domains shown)
VH: B1 VH with I34V, N35T, M50G, A62S, L63V
VL: B1 VL
B7: Y100R: 8L2-6D5 template with CDR H3 mutation Y100R (antibody, V domains shown)
VH: B1 VH with Y100R
VL: B1 VL
B8: L81: light chain library clone, CDRL1 SEQ ID NO:24, CDRL2 SEQ ID NO:25 (antibody, V domains shown)
VH: B1 VH
VL: B1 VL with S26F, D28A, H32Q, S56T
B9: H17: heavy chain library clone, CDRH1 SEQ ID NO:42, CDRH2 SEQ ID NO:43 (antibody, V domains shown)
VH: B1 VH with I34A, N35S, M50G, A62S, L63V
VL: B1 VL
B10: Y101W: 8L2-6D5 template with CDR H3 mutation Y101W (SEQ ID NO:46) (antibody, V domains shown)
VH: B1 VH with Y101W
VL: B1 VL
B11: T104S: 8L2-6D5 template with CDR H3 mutation T104S (antibody, V domains shown)
VH: B1 VH with T104S
VL: B1 VL
B12: H227: heavy chain library clone, CDRH1 SEQ ID NO:40, CDRH2 SEQ ID NO:41 (antibody, V domains shown)
VH: B1 VH with N35S, M50Q, A62S, L63V
VL: B1 VL
B13: H19: heavy chain library clone, CDRH1 SEQ ID NO:30, CDRH2 SEQ ID NO:31 (antibody, V domains shown)
VH: B1 VH with I34L, M50I, L63V
VL: B1 VL
B14: S105A: 8L2-6D5 template with CDR H3 mutation S105A (SEQ ID NO:47) (antibody, V domains shown)
VH: B1 VH with S105A
VL: B1 VL
B15: G103A: 8L2-6D5 template with CDR H3 mutation G103A (SEQ ID NO:49) (antibody, V domains shown)
VH: B1 VH with G103A
VL: B1 VL
B16: S105T: 8L2-6D5 template with CDR H3 mutation S105T (SEQ ID NO:48) (antibody, V domains shown)
VH: B1 VH with S105T
VL: B1 VL
B17: H28: heavy chain library clone, CDRH1 SEQ ID NO:44, CDRH2 SEQ ID NO:45 (antibody, V domains shown)
VH: B1 VH with I34S, N35T, M50S
VL: B1 VL
B18: Y100L: 8L2-6D5 template with CDR H3 mutation Y100L (antibody, V domains shown)
VH: B1 VH with Y100L
VL: B1 VL
B19: S91E: 8L2-6D5 template with CDR L3 mutation S91E (SEQ ID NO:50) (antibody, V domains shown)
VH: B1 VH
VL: B1 VL with S91E
B20: H18: heavy chain library clone, CDRH1 SEQ ID NO:36, CDRH2 SEQ ID NO:37 (antibody, V domains shown)
VH: B1 VH with I34A, N35T, M50G, L63V
VL: B1 VL
B21: H222: heavy chain library clone, CDRH1 SEQ ID NO:32, CDRH2 SEQ ID NO:33 (antibody, V domains shown)
VH: B1 VH with I34V, N35T, M50G, L63V
VL: B1 VL

Target: human NGF (Homo sapiens, UniProt P01138)
Sequence (P01138 122-241): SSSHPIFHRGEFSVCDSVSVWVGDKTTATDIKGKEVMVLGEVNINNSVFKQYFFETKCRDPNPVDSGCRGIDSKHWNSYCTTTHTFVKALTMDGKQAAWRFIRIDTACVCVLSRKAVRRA
Assay: BIAcore screening assay of Fab library clones (koff)
Format: binding
Conditions: for binding affinity compared with the 8L2-6D5 template: single CDR3 mutation
Method: Small scale expression in 96 wells plates was optimized for screening Fab libraries. Starting from E. coli transformed with a Fab library, colonies were picked to inoculate both a master plate (agar LB+Ampicillin (50 μg/ml)+2% Glucose) and a working plate (2 ml/well, 96 well/plate containing 1.5 mL of LB+Ampicillin (50 μg/ml)+2% Glucose). Both plates were grown at 30° C. for 8-12 hours. The master plate was stored at 4° C. and the cells from the working plate were pelleted at 5000 rpm and resuspended with 1 mL of LB+Ampicillin (50 μg/ml)+1 mM IPTG to induce expression of Fabs. Cells were harvested by centrifugation after 5 h expression time at 30° C., then resuspended in 500 μL of buffer HBS-EP ([…] buffer pH 7.4, 150 mM NaCl, 0.005% P20, 3 mM EDTA). Lysis of HBS-EP resuspended cells was attained by one cycle of freezing (−80° C.) then thawing at 37° C. Cell lysates were centrifuged at 5000 rpm for 30 min to separate cell debris from supernatants containing Fabs. The supernatants were then injected into the BIAcore plasmon resonance apparatus to obtain affinity information for each Fab. Clones expressing Fabs were rescued from the master plate to sequence the DNA and for large scale Fab production and detailed characterization as described below.
Affinities of anti-NGF Fabs and monoclonal antibodies were determined using the BIAcore300™ surface plasmon resonance (SPR) system (BIAcore, INC, Piscaway N.J.). CM5 chips were activated with N-ethyl-N′-(3-dimethylaminopropyl)-carbodimide hydrochloride (EDC) and N-hydroxysuccinimide (NHS) according to the supplier's instructions. Human NGF was diluted into 10 mM sodium acetate pH 4.0 and injected over the activated chip at a concentration of 0.005 mg/mL. Using variable flow time across the individual chip channels, two ranges of antigen density were achieved: 100-200 response units (RU) for detailed kinetic studies and 500-600 RU for screening assays. The chip was blocked with ethanolamine. […] HBS-EP buffer (0.01M HEPES, pH 7.4, 0.15 NaCl, 3 mM EDTA, 0.005% Surfactant […]) was used as running buffer for all the BIAcore assays.
A screening BIAcore assay was optimized to determine the affinity of Fab clones from libraries. Supernatants of small culture lysates were injected at 50 μl/min for 2 min. Dissociation times of 10 to 15 minutes were used for determination of a single exponential dissociation rate (koff) using BIAevaluation software. […] Clones showing improved (slower) koff values were expressed at large scale and full kinetic parameters, kon and koff, were determined on purified protein. The assay was capable of detecting differences in affinity that were approximately 2-fold or larger.
For affinity screening experiments, each library was further paired with the corresponding CDR-grafted light or heavy chain (for example, the H1/H2 library was paired with CDR-grafted light chain), the antibody was expressed, and affinity to human NGF of the individual clones was screened using the BIACORE surface plasmon resonance (SPR) system (BIAcore, Inc. Piscataway, N.J.) according to the manufacturer's instructions and as described above. koff, kon and KD were determined. Antibody clones were ranked based on koff rates, since generally most variation in affinity is seen in koff rates, and further because koff rates are independent of antibody concentration.
20-80 clones from each small library were screened using BIAcore analysis as described herein. Samples were simultaneously analyzed by BIAcore for binding affinity to NGF in one channel of the BIAcore chip and for presence of Fab by binding to a penta-histag antibody in another channel of the sensor chip, to detect the his tag at the C terminus of the heavy chain. Clones that expressed protein were classified as having the same affinity, worse affinity, better affinity or no binding, using koff to classify: The results of this analysis are shown in Table 5.

[1] = Table 3: heavy chain library clones paired with 6D5 light chain
[2] = Table 3: light chain library clones paired with 8L2 heavy chain
[3] = Table 6: single CDR H3 or L3 mutation in 8L2-6D5 template

Molecule | koff [1] | koff [3] | also measured
B1 | 0.001 s⁻¹ | 0.001 s⁻¹ | koff [2]: **1e3 s-1; koff (Table 8: CDR L3 H3 combination mutations, 8L2-6D5 template): 0.001 s⁻¹; koff (template used to create the library): 1×10^−3 s^−
B2 | – | – | koff [2]: 0.00056 s⁻¹
B3 | 0.00016 s⁻¹ | – | –
B4 | – | – | koff [2]: 0.00045 s⁻¹
B5 | – | – | koff [2]: 0.00046 s⁻¹
B6 | 0.00038 s⁻¹ | – | –
B7 | – | 0.0011 s⁻¹ | –
B8 | – | – | koff [2]: 0.00074 s⁻¹
B9 | 0.00061 s⁻¹ | – | Kd (Table 3: heavy chain library clones, KD calculated using kon 4e4 M^−1s^−1): 15.2 nM
B10 | – | 0.00056 s⁻¹ | binding affinity compared with the 8L2-6D5 template: significantly increased binding affinity
B11 | – | 0.0022 s⁻¹ | –
B12 | 0.00054 s⁻¹ | – | –
B13 | 0.00024 s⁻¹ | – | –
B14 | – | 0.00051 s⁻¹ | binding affinity compared with the 8L2-6D5 template: significantly increased binding affinity
B15 | – | 0.00016 s⁻¹ | binding affinity compared with the 8L2-6D5 template: significantly increased binding affinity
B16 | – | 0.00064 s⁻¹ | binding affinity compared with the 8L2-6D5 template: significantly increased binding affinity
B17 | 0.00075 s⁻¹ | – | –
B18 | – | 0.0012 s⁻¹ | –
B19 | – | 0.00025 s⁻¹ | binding affinity compared with the 8L2-6D5 template: significantly increased binding affinity
B20 | 0.00042 s⁻¹ | – | –
B21 | 0.00038 s⁻¹ | – | –
